Test results: patent US7790697B2, “Compositions and methods for inhibiting the synthesis or expression of MMP-1” (Trustees of Dartmouth College, priority 2004, dated 2010)

Assays:
Format in all cases: cell-based, human
[1] = test system: interferon-responsive genes; test: Interferon response RT-PCR assay; conditions: pooled stable MDA-231 cell lines
Description: Interferon Response RT-PCR Assay. RNA pooled from MDA-231 ells containing empty vector or the MMP-1 shRNA were reverse-transcribed with M-MLV reverse transcriptase (INVITROGEN™) according to the manufacturer's instructions. Briefly, 3 μg of RNA, 99 ng random hexamers, and 10 nmoles of dNTP were combined to a total volume of 12 μL. The mixture was incubated at 65° C. for 5 minutes and cooled to 4° C. Four μL of 5× […], 2 μL of 0.1 M DTT, and 1 μL of RNase inhibitor A (40 U/μL) were then added to the reaction and it was incubated at 37° C. for 2 minutes. One μL of M-MLV reverse transcriptase was added to the reaction and incubated at 25° C. for 10 minutes, 37° C. for 50 minutes and 70° C. for 15 minutes. The expression levels of 11 interferon-responsive genes and GAPDH were then estimated using semi-quantitative PCR and the human interferon-response MULTIGENE-12™ RT-PCR Profiling Kit (SuperArray Bioscience Co., Frederick, Md.).
To determine whether the MMP-1 shRNA was producing a shRNA-associated interferon response in the stable cell lines, the expression levels of 11 interferon-responsive genes was compared between pools of stable cell lines (Bridge, et al. (2003) Nat. Genet. 34:263-4).

MMP-1 mRNA = MMP-1 mRNA by qRT-PCR in stably transfected MDA-231 cell lines; conditions: for Copies of MMP-1 mRNA per pg GAPDH mRNA: average ± S.D.
Description: Transfection of NIH/3T3 and MDA-231 Cells. NIH/3T3 cells were transiently transfected with LIPOFECTAMINE™ 2000 (INVITROGEN™, Carlsbad, Calif.) along with 0.5 μg peGFP, 0.5 μg pCMV-MMP-1, and 2 μg PSUPER™-MMP-1 shRNA or PSUPER™ with no insert. Transfection efficiency was monitored using eGFP signal. Total cellular RNA was harvested 48 hours after transfection and analyzed for MMP-1 mRNA by real-time RT-PCR. MDA-231 cells were stably transfected in triplicate with LIPOFECTAMINE™ 2000 (INVITROGEN™, Carlsbad, Calif.) and 2 μg of the PSUPER™.Retro.Neo.GFP plasmid containing the MMP-1 shRNA, the scrambled sequence or just the empty vector. Stable cell lines were selected by growth in the presence of 1 mg/mL G418 (STRATAGENE®, La Jolla, Calif.). Individual, stable cell lines were isolated with cloning disks according to the manufacturer's instructions (PGC Scientifics, Frederick, Md.).
RNA Isolation and Real-Time RT-PCR.
After initial neomycin selection and isolation of individual stable cell lines, MMP-1 mRNA and protein levels were determined using quantitative RT-PCR (qRT-PCR) and ELISA. MMP-1 mRNA levels were measured in RNA harvested from stably transfected cell lines after a 24 hour incubation in serum-free medium and were normalized to GAPDH mRNA levels. MMP-1 protein levels were measured in the serum-free media of the cell lines after 24 hours of incubation and were normalized to total protein content of the cells. The ELISA measured total (active and zymogen) forms of MMP-1 protein. […] To control for differences introduced into the cell lines during selection, these three individual cell lines for each group were pooled, and all subsequent experiments were performed on pooled cells.

MMP-1 protein = test: Western blot of MMP-1 protein in culture medium; conditions: MDA-231 cells producing the shRNA; 24 hours
Description: Western Blot Analysis. MDA-231 cells were cultured in 1 mL serum-free DMEM/F12 medium in six-well plates in the presence or absence of a collagen gel, with or without aprotinin (50 U/mL; Sigma, St. Louis, Mo.). After 24 hours, medium was harvested, proteins precipitated with cold 10% trichloroacetic acid, and resuspended in 50 μL SDS loading buffer (PROMEGA®, Madison, Wis.). Following SDS-PAGE and transfer to a PVDF membrane (IMMOBILON™-P; MILLIPORE™, Bedford, Mass.), the membrane was incubated in a 5% milk, Tris-buffered saline solution with 0.1% TWEEN™ (milk TBST) for 1 hour. The membrane was probed with a MMP-1 polyclonal antibody (CHEMICON®, Temecula, Calif.) diluted 1:5000 in milk TBST overnight at 4° C. The membrane was washed three times with TBST, and a 1:2000 dilution of goat anti-rabbit horseradish peroxidase (HRP) conjugated antibody (CELL SIGNALING TECHNOLOGY®, Beverly, Mass.) in milk TBST was added for 60 minutes. The blot was washed three times with TBST, and HRP activity was detected with the WESTERN LIGHTNING® chemiluminescence reagent according to the manufacturer's instructions (PERKINELMER®, Boston, Mass.).
The three MMPs primarily responsible for degrading type 1 collagen are MMP-1, MMP-13, and the membrane bound MT1-MMP (Stamenkovic (2003) J. Pathol. 200:448-64). […]

B1: MMP-1 shRNA: Vector-expressed small hairpin RNA, SEQ ID NO:1 (sense) and SEQ ID NO:2 (antisense), specific to bases 234-252 of MMP-1 mRNA (nucleic acid)
sense: GATCCCCACCAGATGCTGAAACCCTGTTCAAGAGACAGGGTTTCAGCATCTGGTTTTTTGGAAA
antisense: AGCTTTTCCAAAAAACCAGATGCTGAAACCCTGTCTCTTGAACAGGGTTTCAGCATCTGGTGGG
modifications: the letters are possibly those of the target site
Q: Which results are given for B1?
A: interferon response overall (11 interferon-responsive genes) [1]: no consistent upregulation of interferon-responsive gene expression; increase in expression of MxA and GBP1 compared to empty vector cell lines ([1]; semi-quantitative RT-PCR): ~50%; Copies of MMP-1 mRNA per pg GAPDH mRNA (MMP-1 mRNA; Group of cell lines D1, Y2, Y7, P=0.004 vs empty vector): 6200 ± 3200 copies per pg GAPDH mRNA; Copies of MMP-1 mRNA per pg GAPDH mRNA (MMP-1 mRNA; MDA-231 cell line D1): 8900 ± 3600 copies per pg GAPDH mRNA; Copies of MMP-1 mRNA per pg GAPDH mRNA (MMP-1 mRNA; MDA-231 cell line Y2): 4600 ± 2500 copies per pg GAPDH mRNA; Copies of MMP-1 mRNA per pg GAPDH mRNA (MMP-1 mRNA; MDA-231 cell line Y7): 5000 ± 2400 copies per pg GAPDH mRNA; reduction in MMP-1 mRNA levels compared to empty vector cell lines (MMP-1 mRNA; three stable MDA-231 cell lines, 24 hour serum-free): greater than 90%; MMP-1 protein in medium (western blot) (MMP-1 protein): No detectable MMP-1 protein
